# IntAct's records for PubMed 30026314
# B1: Protein Wnt-7a (Homo sapiens), O00755 (parent)
# chain: MNRKARRCLGHLFLSLGMVYLRIGGFSSVVALGASIICNKIPGLAPRQRAICQSRPDAIIVIGEGSQMGLDECQFQFRNGRWNCSALGERTVFGKELKVGSREAAFTYAIIAAGVAHAITAACTQGNLSDCGCDKEKQGQYHRDEGWKWGGCSADIRYGIGFAKVFVDAREIKQNARTLMNLHNNEAGRKILEENMKLECKCHGVSGSCTTKTCWTTLPQFRELGYVLKDKYNEAVHVEPVRASRNKRPTFLKIKKPLSYRKPMDTDLVYIEKSPNYCEEDPVTGSVGTQGRACNKTAPQASGCDLMCCGRGYNTHQYARVWQCNCKFHWCCYVKCNTCSERTEMYTCK
# partner: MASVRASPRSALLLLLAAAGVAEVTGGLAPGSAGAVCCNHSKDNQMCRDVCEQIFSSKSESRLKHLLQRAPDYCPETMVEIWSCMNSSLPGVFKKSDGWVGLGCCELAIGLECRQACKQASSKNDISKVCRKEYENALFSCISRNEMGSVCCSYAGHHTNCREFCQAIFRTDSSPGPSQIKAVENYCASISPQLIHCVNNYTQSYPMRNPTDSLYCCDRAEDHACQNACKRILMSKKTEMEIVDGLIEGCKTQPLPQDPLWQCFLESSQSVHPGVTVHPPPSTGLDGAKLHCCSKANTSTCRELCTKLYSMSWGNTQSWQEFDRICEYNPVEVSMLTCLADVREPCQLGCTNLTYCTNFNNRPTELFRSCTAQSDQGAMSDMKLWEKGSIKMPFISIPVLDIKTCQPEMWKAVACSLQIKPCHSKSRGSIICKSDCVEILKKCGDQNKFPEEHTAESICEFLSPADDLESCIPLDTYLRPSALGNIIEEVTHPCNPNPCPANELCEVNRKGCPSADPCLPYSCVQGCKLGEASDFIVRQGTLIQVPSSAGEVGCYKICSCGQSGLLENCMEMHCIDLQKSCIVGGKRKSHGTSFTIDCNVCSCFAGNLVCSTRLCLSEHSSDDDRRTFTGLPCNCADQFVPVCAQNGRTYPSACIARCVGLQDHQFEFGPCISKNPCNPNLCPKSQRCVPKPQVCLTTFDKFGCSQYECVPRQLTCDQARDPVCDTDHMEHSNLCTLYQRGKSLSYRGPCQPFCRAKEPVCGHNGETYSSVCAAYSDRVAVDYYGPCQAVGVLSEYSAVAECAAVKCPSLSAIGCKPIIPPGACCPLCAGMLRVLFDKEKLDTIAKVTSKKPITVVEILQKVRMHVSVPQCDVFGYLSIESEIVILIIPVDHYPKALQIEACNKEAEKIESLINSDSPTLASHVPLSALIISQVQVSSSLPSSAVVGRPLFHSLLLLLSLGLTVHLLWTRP
# Variants of: B1
# Conditions: with reck_mouse Reck
row,Variant,effect of a mutation on the interaction
1,V241A;F251A;L252A;K262A,disrupting interaction strength
